From the Human Domainome abundance scans (Beltran et al. 2025)
± gives the uncertainty stated by the source.

B1: Cold shock protein CspB, residues 1 to 66; numbered along this chain, P41016 (parent)
chain: MQRGKVKWFNNEKGYGFIEVEGGSDVFVHFTAIQGEGFKTLEEGQEVSFEIVQGNRGPQAANVVKL

Variants of: B1
Experiment: abundance fitness (aPCA) (normalised: wild type 0, dead -1); higher = more abundant; growth selection in yeast, the domain comes from the species named
Conditions: Bacillus caldolyticus

Variant | abundance fitness
S48Y | 0.022 ± 0.069
G16K | -1.08 ± 0.15
G16L | -0.901 ± 0.046
G16W | -1.18 ± 0.13
G16T | -0.954 ± 0.087
G37L | -0.126 ± 0.029
G37T | -0.069 ± 0.041
G37Q | -0.078 ± 0.056
G37Y | -0.074 ± 0.059
G37P | -0.119 ± 0.048
G37W | -0.141 ± 0.041
D25Y | -0.231 ± 0.06
D25I | -0.214 ± 0.063
D25Q | -0.073 ± 0.054
D25K | -0.093 ± 0.046
D25E | -0.082 ± 0.043
A32F | -0.129 ± 0.058
A32N | -0.045 ± 0.058
A32T | -0.105 ± 0.039
V64G | -0.042 ± 0.035
V64P | -0.731 ± 0.089

Variant | abundance fitness
V64R | -0.003 ± 0.035
V64T | -0.012 ± 0.067
V64H | -0.057 ± 0.099
V64E | -0.003 ± 0.056
V64K | -0.029 ± 0.068
V64L | -0.015 ± 0.038
F27A | -0.206 ± 0.037
F27N | -0.335 ± 0.1
F27P | -0.161 ± 0.042
G22F | -0.016 ± 0.06
G22R | -0.011 ± 0.034
G22Q | -0.035 ± 0.058
V6T | -0.002 ± 0.048
V6D | -1.09 ± 0.11
V6R | -0.971 ± 0.052
V6I | -0.017 ± 0.04
V6A | -0.088 ± 0.035
V6G | -0.452 ± 0.026
Q2C | 0.027 ± 0.061
Q2E | 0.011 ± 0.067
Q2M | 0.051 ± 0.066

Variant | abundance fitness
Q2H | 0.027 ± 0.083
Q2Y | 0.003 ± 0.051
Q2N | -0.026 ± 0.12
E19S | 0.016 ± 0.031
E19P | -0.316 ± 0.037
E19D | 0.006 ± 0.072
E19H | 0.016 ± 0.073
E19F | -0.048 ± 0.05
E19L | 0.019 ± 0.033
T40Q | -0.041 ± 0.041
T40C | -0.006 ± 0.062
T40A | -0.022 ± 0.038
T40V | -0.043 ± 0.041
T40K | -0.065 ± 0.048
T40R | -0.043 ± 0.032
T40I | -0.032 ± 0.044
T40D | -0.112 ± 0.052
T40G | -0.048 ± 0.042
T40M | -0.04 ± 0.04
T40P | -0.227 ± 0.036
P58Y | -0.066 ± 0.073

Variant | abundance fitness
P58M | 0.006 ± 0.041
P58K | -0.036 ± 0.052
P58Q | -0.015 ± 0.052
P58C | -0.083 ± 0.059
Q34N | 0.053 ± 0.11
Q34T | -0.008 ± 0.051
Q34V | 0.048 ± 0.045
Q34W | -0.049 ± 0.043
Q34H | -0.123 ± 0.15
Q34C | -0.071 ± 0.066
Q34I | -0.169 ± 0.087
E50G | -0.032 ± 0.032
E50K | -0.008 ± 0.066
E50W | -0.013 ± 0.043
E50V | -0.018 ± 0.036
E50S | -0.029 ± 0.036
Q53R | -0.002 ± 0.043
Q53K | -0.033 ± 0.052
Q53L | -0.027 ± 0.028
Q53M | 0.01 ± 0.044
